Results on 96 substances are retold here after US20250011363A1, “OPTIMIZED SHORTENED PEPTIDE THAT BINDS TO ACETYLCHOLINE RECEPTOR, AND USE THEREOF” (SKINMED CO., LTD., priority 2021, published 2025).

The target in this experiment is acetylcholine receptor (Homo sapiens, UniProt P02708). Description: SPR binding affinity (RU) of optimized 5mer/6mer/7mer peptides, Examples 6-7. Conditions: SPR, peptides at 10 μM; 6mer-2 Bottom sequence. The method in brief:
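Using surface plasmon resonance, binding to the acetylcholine receptor was measured for each sequence at a single 10 μM concentration. Values are response units.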
For orientation: SPR reads the build-up and loss of mass on a sensor chip optically.

acetylcholine receptor, sequence (P02708 21-457): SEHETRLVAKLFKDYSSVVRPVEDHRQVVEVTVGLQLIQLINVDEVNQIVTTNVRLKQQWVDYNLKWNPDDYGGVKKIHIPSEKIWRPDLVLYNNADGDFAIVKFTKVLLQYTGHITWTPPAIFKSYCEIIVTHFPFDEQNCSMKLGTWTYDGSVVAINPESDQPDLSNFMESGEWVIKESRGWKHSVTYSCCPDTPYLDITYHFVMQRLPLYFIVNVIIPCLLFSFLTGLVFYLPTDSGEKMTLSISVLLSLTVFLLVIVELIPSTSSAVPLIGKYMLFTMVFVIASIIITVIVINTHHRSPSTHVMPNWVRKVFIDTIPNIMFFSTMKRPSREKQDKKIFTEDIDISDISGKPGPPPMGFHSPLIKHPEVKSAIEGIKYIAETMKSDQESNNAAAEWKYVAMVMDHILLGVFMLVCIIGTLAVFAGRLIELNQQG

Take 6mer-2-1058 (RMPWKK): the Binding affinity was found to be 24 Ru.

Take 6mer-2-1059 (RFADRR): the Binding affinity was found to be 35 Ru. On to 6mer-2-1060 (KTNERK), for which the Binding affinity is on record as 35 Ru. With 6mer-2-1061 (KPPIKK) the figure was 38 Ru. With 6mer-2-1062 (KYNIRK) the figure was 35 Ru; with 6mer-2-1063 (RFNVRK), 24 Ru.

6mer-2-1064 (RCMKRR): the Binding affinity is on record as 39 Ru. The same measure for 6mer-2-1065 (RIANRK): 27 Ru; for 6mer-2-1066 (KPEHKR): 29 Ru; for 6mer-2-1067 (RDEIRK): 29 Ru. With 6mer-2-1068 (RIHVKK) the figure was 26 Ru; with 6mer-2-1069 (KHDMKK), 36 Ru. The same measure for 6mer-2-1070 (RPHVRR): 31 Ru; for 6mer-2-1071 (RTTWRK): 25 Ru; for 6mer-2-1072 (KPHWKR): 29 Ru. Consider 6mer-2-1073 (KYSWRK), for which the Binding affinity is listed as 24 Ru. The same measure for 6mer-2-1074 (RPMGRK): 33 Ru.

Take 6mer-2-1075 (RHMERK): the Binding affinity stood at 31 Ru. Consider 6mer-2-1076 (RYCIRR), for which the Binding affinity was 34 Ru. The same measure for 6mer-2-1077 (KMTIKK): 34 Ru. With 6mer-2-1078 (KDTFRR) the figure was 40 Ru; with 6mer-2-1079 (KCNEKK), 40 Ru; with 6mer-2-1080 (RKHKKK), 23 Ru. The same measure for 6mer-2-1081 (KYKMRR): 32 Ru; for 6mer-2-1082 (KYTERR): 31 Ru. Consider 6mer-2-1083 (KTKGKR), for which the Binding affinity came to 39 Ru. With 6mer-2-1084 (REKPRK) the figure was 29 Ru; with 6mer-2-1085 (RPEIRK), 42 Ru.

For 6mer-2-1086 (KNDWRK), the Binding affinity came out at 21 Ru. Regarding 6mer-2-1087 (KEEMRR), the Binding affinity is 21 Ru. With 6mer-2-1088 (RPCEKK) the figure was 39 Ru. For the substance 6mer-2-1089 (RKTDRR), the Binding affinity was found to be 43 Ru. Turning to 6mer-2-1090 (KEMHKK), the Binding affinity came to 33 Ru. The same measure for 6mer-2-1091 (RFDNKR): 31 Ru; for 6mer-2-1092 (RAKFRR): 21 Ru. Turning to 6mer-2-1093 (KTTDKK), the Binding affinity is listed as 43 Ru. As to 6mer-2-1094 (KAWERK), the Binding affinity amounted to 43 Ru. With 6mer-2-1095 (KYSMRR) the figure was 39 Ru; with 6mer-2-1096 (RANVKR), 39 Ru.

As for 6mer-2-1097 (RFWEKK), the Binding affinity is given as 23 Ru. With 6mer-2-1098 (KHPKRR) the figure was 28 Ru; with 6mer-2-1099 (REDWRR), 21 Ru.

In the case of 6mer-2-1100 (RTAPKK), the Binding affinity is 24 Ru. With 6mer-2-1101 (RTKMRR) the figure was 38 Ru.

Turning to 6mer-2-1102 (KHKGKR), the Binding affinity worked out at 32 Ru. With 6mer-2-1103 (RDAWRK) the figure was 42 Ru.

Take 6mer-2-1104 (RYTKKR): the Binding affinity is 38 Ru. For 6mer-2-1105 (RNNAKK), the Binding affinity is 28 Ru. The same measure for 6mer-2-1106 (KDKVKR): 28 Ru; for 6mer-2-1107 (RAHERK): 29 Ru; for 6mer-2-1108 (KKKVRR): 36 Ru.

As to 6mer-2-1109 (KEDMRK), the Binding affinity worked out at 26 Ru. With 6mer-2-1110 (RMTKKK) the figure was 37 Ru; with 6mer-2-1111 (REDEKK), 23 Ru; with 6mer-2-1112 (RASWRK), 26 Ru.

With 6mer-2-1113 (KPNFRK), the Binding affinity was found to be 43 Ru. Regarding 6mer-2-1114 (RKKFRK), the Binding affinity is 34 Ru. With 6mer-2-1115 (KYSPRK) the figure was 39 Ru; with 6mer-2-1116 (KMEVKK), 31 Ru. 6mer-2-1117 (RMHVKR): the Binding affinity is on record as 21 Ru.

As for 6mer-2-1118 (RFDGRR), the Binding affinity is given as 42 Ru. The same measure for 6mer-2-1119 (KCTVRK): 39 Ru; for 6mer-2-1120 (RDMMKK): 28 Ru. The same measure for 6mer-2-1121 (KPSKRR): 21 Ru. With 6mer-2-1122 (RCNFKK) the figure was 22 Ru; with 6mer-2-1123 (RITARR), 36 Ru; with 6mer-2-1124 (RKTWRK), 39 Ru. Regarding 6mer-2-1125 (RDAFKK), the Binding affinity was determined as 30 Ru. For the substance 6mer-2-1126 (RHEVRR), the Binding affinity is listed as 23 Ru.

As for 6mer-2-1127 (KAAEKK), the Binding affinity is 42 Ru. With 6mer-2-1128 (KNCMRK) the figure was 36 Ru; with 6mer-2-1129 (RITGKR), 42 Ru; with 6mer-2-1130 (RHSFRK), 29 Ru. The same measure for 6mer-2-1131 (RTNAKR): 26 Ru; for 6mer-2-1132 (RPWERR): 32 Ru. With 6mer-2-1133 (KMKMKK) the figure was 22 Ru; with 6mer-2-1134 (KYENRK), 30 Ru; with 6mer-2-1135 (RANWKR), 29 Ru. As to 6mer-2-1136 (KMKKKR), the Binding affinity stood at 36 Ru. The same measure for 6mer-2-1137 (RTDFKR): 22 Ru; for 6mer-2-1138 (KAHFKK): 42 Ru. With 6mer-2-1139 (KAKAKK) the figure was 39 Ru; with 6mer-2-1140 (KMNKKR), 29 Ru. With 6mer-2-1141 (KCTGKR) the figure was 32 Ru. For the substance 6mer-2-1142 (KKAMKR), the Binding affinity is 30 Ru. With 6mer-2-1143 (KACIKK) the figure was 42 Ru. The same measure for 6mer-2-1144 (RFEDRK): 39 Ru. 6mer-2-1145 (RIKNRR): the Binding affinity stood at 23 Ru. The same measure for 6mer-2-1146 (REWGRK): 32 Ru.

Take 6mer-2-1147 (KFMKKK): the Binding affinity is given as 35 Ru. With 6mer-2-1148 (KEKGKR) the figure was 34 Ru; with 6mer-2-1149 (KIDFRR), 21 Ru. With 6mer-2-1150 (KTDVKK), the Binding affinity was 42 Ru. With 6mer-2-1151 (RYPVRK) the figure was 43 Ru; with 6mer-2-1152 (RNWAKK), 37 Ru; with 6mer-2-1153 (KHKPKR), 27 Ru.
